Earlier results as cited in PMC3320014.

Target: Protein Z-dependent protease inhibitor (Homo sapiens) (UniProt Q9UK55)
UniProt Q9UK55, sequence (Q9UK55 22-444): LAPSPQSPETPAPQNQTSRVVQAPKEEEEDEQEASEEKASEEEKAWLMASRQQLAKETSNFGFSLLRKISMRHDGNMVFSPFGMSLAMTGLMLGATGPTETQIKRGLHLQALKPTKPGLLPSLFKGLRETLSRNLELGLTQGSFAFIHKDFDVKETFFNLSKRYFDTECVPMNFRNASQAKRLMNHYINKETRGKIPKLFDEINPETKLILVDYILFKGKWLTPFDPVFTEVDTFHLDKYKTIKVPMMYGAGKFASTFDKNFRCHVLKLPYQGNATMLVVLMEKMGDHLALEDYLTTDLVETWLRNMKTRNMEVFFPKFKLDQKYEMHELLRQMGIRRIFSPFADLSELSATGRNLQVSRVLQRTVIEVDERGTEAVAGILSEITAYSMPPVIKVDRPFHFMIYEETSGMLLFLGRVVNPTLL

Substance: Protein Z (from UniProt P22891)
- Kd: 7 nM
